For experiment [1], the system named is Akt and Erk phosphorylation in pro-inflammatory (M1) macrophages. The experiment can be described thus: Western blot analysis ERK/Akt phosphorylation. It counts as cell-based, mice. The conditions noted are these: 2 μg/mL; after 10 to 30 minutes of incubation; FIG. 17. Here is the method: FIG. 17. Study of the CMKLR1 pathway activation: Akt and Erk phosphorylation. Western blot analysis of the ERK and AKT activation pathway after 5, 10 and 30 minutes of mice pro-inflammatory (M1) macrophages incubated with 2G1 or RvE1. The Phosphorylated protein Akt or Erk were assessed using P-Akt antibody or P-Erk antibody (p44/42). A. Erk and Akt activation with RvE1. B. Erk and Akt activation with 2G1.
Mice pro-inflammatory macrophages (M1) were generated from bone marrow with M-CSF and polarized with IFN-gamma (IFNg) and LPS. Briefly, bone marrow cells were collected by flushing the femoral bone and cultured with 100 ng/mL of mM-CSF for 5 days and then polarized with 20 ng/mL of IFNg and 100 ng/mL of LPS for 24 h. Then, they were deprived of FBS for 24 hours with RPMI FBS 2% medium. Finally, mice pro-inflammatory macrophages were treated with 2 μg/mL of 2G1 antibody at different times: 5, 10 and 30 minutes. Cells were collected in a RIPA buffer. The protein concentration was measured by a BCA protein kit assay. Proteins were denatured by heating at 95° C. for 5 minutes and diluted in DTT and Laemmli solution. After migration and transfer, the nitrocellulose membrane was blocked with 5% BSA in TBS-T for 2 hours. […] Western blot Images were quantified by Multi Gauge software
Background: In western blotting, separated proteins are transferred to a membrane and probed.

The test system of a further experiment is CT26 cells. Briefly: CT26 colon carcinoma model. It counts as in vivo, mice. The conditions noted are these: 20 μg/injection i.p. for 3 weeks from d4; FIG. 9A-C. Here is the method: FIG. 9. Effect of an anti-CMKLR1 antibody on 2 different colon carcinoma mice models. Two mice models were studied, and animals received isotype control antibody (3G8) (x) or anti-CMKLR1 (2G1) (□) at 20 μg/injection intraperitoneally for 3 weeks. A-C. Results in the CT26 colon carcinoma model comparing single treatment with p84 (A) and 2G1 (B) with combined therapy with both antibodies (C). D: Results in the MC38 colon carcinoma model.
8-week old C57bl/6J male mice were anesthetized with 3% of isoflurane. Mice were shaved on the flank and MC38 cells (0.5·10≢cells/mouse) cell lines were injected subcutaneously with an insulinic syringe (30 Gauges) in 50 μL of PBS. Another model was used, in which 8-week old Balb/c male mice were anesthetized with 3% of isoflurane. Mice were shaved on the flank and CT26 cells (1.10≢cells/mouse) were injected subcutaneously with an insulinic syringe (30 Gauges) in 50 μL of PBS.
The agonistic anti-CMKLR1 antibody (2G1) or an anti-SIRPa antibody (p84-anti-mouse SIRPa from Merck Millipore) (SIRPa is a new checkpoint inhibitor) were injected once a week (20 μg/injection) intraperitoneally for 3 weeks starting at d4 after tumor inoculation alone or combined.

The test system of another experiment is Mice dendritic cells. Briefly: DCs maturation and differentiation, activation markers by FACS. It counts as cell-based. Here is the method: FIG. 1. Effect of the anti-CMKLR1 variants 1G1, 2G1, 3G1 and 4G1 chimeric antibodies on the DCs maturation and differentiation. Mice dendritic cells were incubated during maturation phase (24 h or 48 h) followed by a differentiation phase with excipient or RvE1 or anti-CMKLR1 antibodies variants (mutations on positions 1 and 2 of SEQ ID No. 8, corresponding to the VH-CDR3: 1G1 (LL), 2G1 (LI), 3G1 (IL) or 4G1 (II) or isotype controls (hIgG1 or mIgG)). Cells were then stained for FACS analysis with cell marker antibodies: A. CD80-PE; B. CD86-FITC; C. CD103-PerCPCy5.5; D. I/Ab-APC. Mean of Fluorescence was determined in each condition. E and F represent the viability of the cells measured by FACS using LIVE/DEAD® kit from Life Technologies in each condition after 24 or 48 hours of maturation respectively.
FIG. 16. Study of the myeloid cell activation markers after CMKLR1 pathway activation. Dendritic cells incubated in excipient, RvE1, 2G1 or isotype control (hIgG1) were then stained for FACS analysis with marker antibodies: A. CD80-PE. B. CD86-FITC. C. CD103-PerCPCy5.5. D. CD40-PeCy7. E. I/Ab-APC. Mean of Fluorescence was determined in each condition.
Bone marrow cells were harvested and cultured in RPMI medium supplemented with 10% FBS, glutamine and antibiotics and the dendritic cell differentiation was induced by GM-CSF at 20 ng/ml for 7 days. Then, immature dendritic cells (iDC) were collected and cultured for 24 hours with LPS (100 ng/ml) to induce the maturation from iDC to mDC. Treatments were added during differentiation and maturation at 2 μg/ml.
Dendritic cells were resuspended in PBS-FBS-EDTA and incubated with live and dead (LIVE/DEAD® Fixable Dead Cell Stains Yellow-Life Technologies) for 30 minutes on ice. Staining of CD11c-BV711, CD11b-APCCy7, I/Ab-APC, CD103-PerCPCy5.5, CCR7-V450, CD40-PeCy7, CD80-PE, CD86-FITC (all provided by BD Pharmingen) were performed.
In general terms: A flow cytometer gives signals particle by particle.

For experiment [2], the system named is chronic colitis after CD45Rbhigh CD4 T cell transfer in Rag1 knock-out mice. The experiment can be described thus: CD45Rb high T-cell transfer chronic colitis model. The format is in vivo. Here is the method: FIG. 19. Effect of an anti-CMKLR1 antibody in the CD45Rb^high T-cell transfer chronic colitis mouse model. A. Weight variation of treated animals was followed up to sixty days. Animals were treated with isotype control hIgG1 (x) or anti-CMKLR1 antibody (n). B. Histological staining of colon tissue in the mice treated with the anti-CMKLR1 (right) compared to control (left). C. Anatomic pathology scores used to calculate the severity of the pathology and the inflammation (inflammation score, vasculutis score, colon thickness and fibrotic colon wall). D. CD3 and Ly6G infiltration.
Method: CD45Rb^high CD4 T cells were isolated from the spleen of naive mice and sorted on an ARIA FACS after a negative selection of the CD4 T cells by magnetic sorting, then injected intraperitoneally at 0.5·10^6 cells in 100 μL of PBS into 6-weeks old female Rag1 knock-out mice. Anti-CMKLR1 antibody (2G1) or an isotype control were administered from day 32 after the CD45Rb^high CD4 T cell transfer for 3 weeks three times a week at 1 mg/kg. The follow-up of weight was evaluated three times a week and the weight variation was determined over the initial weight. * p<0.05, ** p<0.01.

B1: 2G1: parental chimeric anti-CMKLR1 antibody: heavy chain variable domain SEQ ID No. 37, light chain variable domain SEQ ID No. 49 (antibody, V domains shown)
VH: EVQLVASGGGLVQPGGSLKLSCAASGFTFSSYGMSWVRQTPDRRLELVATINRYGGSTYYPDSVKGRFTISRDNAKNTLYLQMSSLKSEDTAMYYCPRLIYYGNEGDSWGQGTTLTVSS
VL: QIVLTQSPAIMSASPGEKVTMTCSASSSVSFMHWYQQKSGTSPKRWIYDTTKLTSGVPARFSGSGSGTFYSLTISSMEAEDAATYYCQQWNSKPPLTFGPGTKLELKR
Consider B1, for which the “activation of Akt and Erk proteins (phosphorylation)” value in experiment [1] is “able to induce the activation of both Akt and Erk proteins”. Besides, in the experiment on CT26 cells, the tumor development result is listed as “did not demonstrate a clinical effect on the tumor development”. The viability of cells entry in the experiment with Mice dendritic cells (LIVE/DEAD kit, after 24 or 48 hours of maturation, FIGS. 1E and 1F) is “enhanced”. Further, in the experiment with Mice dendritic cells (compared to the excipient or isotype control, FIG. 16), the “expression of CD80, CD86, CD103, CD40 and IAb” value was “strong decrease”. Further, the “DCs activation and/or maturation (DCs expressing CD103 and IAb)” value with Mice dendritic cells (maturation 24 h or 48 h, FIG. 1) is given as “inhibit DCs activation and/or maturation in a stronger manner than other synthetized antibodies”. For the same molecule, in experiment [2] (1 mg/kg three times a week for 3 weeks from day 32, vs isotype control, FIG. 19A), the Weight variation result is listed as “continue to gain weight”. The “anatomic pathology scores, comprising inflammation scores” value in experiment [2] (FIG. 19C) is given as “lower”. In experiment [2] (histology, FIG. 19B), the colon tissue thickness result was “decrease of tissue thickness” and the fibrotic tissue entry is listed as “decrease of fibrotic tissue”.

Source of the values: patent publication US12534533B2, “Anti-chemokine like receptor 1 humanized antibodies and their therapeutic applications” (OSE IMMUNOTHERAPEUTICS, priority 2019, dated 2026).
